Measured values published in patent US20020077295A1 (YALE UNIVERSITY, published 2002).
Blank lines part the entries; values can stand above or below the binder they belong to. Where no end group is shown, it is not given here.

B4: AP-Nogo (His-AP-Nogo, 66 amino acid) (ligand)
chain: HHHHHHIIPVEEENPDFWNREAAEALGAAKKLQPAQTAAKNLIIFLGDGMGVSTVTAARILKGQKKDKLGPEIPLAMDRFPYVALSKTYNVDKHVPDSGATATAYLCGVKGNFQTIGLSAAARFNQCNTTRGNEVISVMNRAKKAGKSVGVVTTTRVQHASPAGTYAHTVNRNWYSDADVPASARQEGCQDIATQLISNMDIDVILGGGRKYMFRMGTPDPEYPDDYSQGGTRLDGKNLVQEWLAKRQGARYVWNRTELMQASLDPSVTHLMGLFEPGDMKYEIHRDSTLDPSLMEMTEAALRLLSRNPRGFFLFVEGGRIDHGHHESRAYRALTETIMFDDAIERAGQLTSEEDTLSLVTADHSHVFSFGGYPLRGSSIFGLAPGKARDRKAYTVLLYGNGPGYVLKDGARPDVTESESGSPEYRQQSAVPLDEETHAGEDVAVFARGPQAHLVHGVQEQTFIAHVMAFAACLEPYTACDLAPPAGTTDAAHPGRIYKGVIQAIQKSDEGHPFRAYLESEVAISEELVQKYSNSALGHVNCTIKELRRLFLVDDLVDSLK
notes: also called AP fused Nogo-66
B5: murine NgR (Nogo-66 receptor) expressed on COS-7 cells (receptor)
chain: CPGACVCYNEPKVTTSCPQQGLQAVPTGIPASSQRIFLHGNRISHVPAASFQSCRNLTILWLHSNALARIDAAAFTGLTLLEQLDLSDNAQLHVVDPTTFHGLGHLHTLHLDRCGLRELGPGLFRGLAALQYLYLQDNNLQALPDNTFRDLGNLTHLFLHGNRIPSVPEHAFRGLHSLDRLLLHQNHVARVHPHAFRDLGRLMTLYLFANNLSMLPAEVLMPLRSLQYLRLNDNPWVCDCRARPLWAWLQKFRGSSSEVPCNLPQRLADRDLKRLAASDLEGCAVASGPFRPIQTSQLTDEELLSLPKCCQPDAADKASVLEPGRPASAGNALKGRVPPGDTPPGNGSGPRHINDSPFGTLPSSAEPPLTALRPGGSEPPGLPTTGPRRRPGCSRKNRTRSHCRLGQAGSGASGTGDAEGS
notes: Library clone or pcDNA3.1 construct transfected into COS-7 cells; GPI-linked protein, cleavage site of the GPI signal not applied here; also called mouse NgR; mNgR

Experiments:
[1] = molecular target: B4; test: AP-hNogo-A(1055-1120) binding to transfected COS-7 cells
Procedure: Forty-eight hours after the transfection, the transfected COS-7 cells were washed with hanks balanced salt solution containing 20 mM sodium HEPES, pH 7.05, and 1 mg/ml bovine serum albumin (BSA) [hereinafter “HBH”]. […] AP-fusion protein was detected as previously described for AP-Sema3A (Takahashi et al., Nature Neurosci. 1:487-493, 1998).
Because the NgRΔ1-2, NgRΔ3-4, NgRΔ5-6, and NgRΔ7-8 deletions remove entire LRR domains it is unlikely that the entire tertiary structure of mNgR is disrupted.

[2] = molecular target: T1, AP-NgR (mNgR residues 27-451 fused to 6xHis-placental alkaline phosphatase) (mouse, UniProt P05187 23-511 (human entry)); test: AP-NgR binding to transfected COS-7 cells
T1 construct: Soluble probe in the self-association test

[3] = molecular target: B5; test: binding to mNgR, data not shown
[4] = molecular target: B5; test: 140-AP binding to COS-7 cells expressing mNgR, bound/free plot
Procedure: To determine if AP-fused deletion mutants of Nogo-66 bind mouse NgR (“mNgR”), COS-7 cells were transfected with a plasmid encoding the mouse NgR sequence ligated into pcDNA3.1. 48 hours after transfection, cells were washed with HBH (Hanks balanced salt solution containing 20 mM sodium Hepes, pH 7.05, and 1 mg ml⁻¹ bovine serum albumin) and then incubated with condition medium containing one of the AP-fusion proteins described above for 2 hours at 37° C. Cells were then washed, fixed, and left in HBH at 67° C. for 14-16 h to inactivate endogenous AP. AP-fusion protein binding to NgR expressing COS-7 cells was detected with the substrates NBT and BCIP (FIG. 13b).
FIG. 14b graphically depicts the binding of 140-AP to COS-7 cells expressing mNgR as measured as a function of 140-AP concentration.

[5] = molecular target: T2, Nogo binding sites (axonal Nogo receptors) on chick dorsal root ganglion neurons (chick); test: cell-based or functional assay
[6] = molecular target: T2, Nogo binding sites (axonal Nogo …); test: AP-fusion ligand binding to dissociated neurons, Scatchard analysis
Procedure: Purified protein was subjected to SDS-PAGE and stained for total protein with CBB or immunoblotted with anti-Nogo antibodies (anti-Nogo). Molecular weight markers of 200, 116, 97, 65 and 45 kDa are shown at left, and the migration of AP-Nogo at right. (b) is a photograph of dissociated chick E12 dorsal root ganglion neurons that were incubated with 10 nM AP-Nogo or 10 nM AP-Nogo+160 nM GST-Nogo for sixty minutes at 23° C. The cells were washed, fixed and incubated at 60° C. in order to inactivate endogenous AP. Bound AP-Nogo was detected by incubation with nitro blue tetrazolium. Note the intense neuronal staining by AP-Nogo that is displaced by unlabeled ligand. (c) is a graph displaying experimental data where the potency of AP-Nogo and GST-Nogo in E12 chick dorsal root ganglion growth cone collapse assays was assessed as described in the Example section. […] The means±s.e.m. calculated from five to eight determinations are illustrated. (d) is a graph displaying experimental data where the binding of 10 nM AP-Nogo to chick E12 dorsal root ganglion neurons was assessed alone, or in the presence of 100 nM GST-Nogo or in the presence of 4 μM Pep2, which was quantified from experiments as in (b) by the method described in the Example section. The means±s.e.m. calculated from eight determinations are shown. […]

[7] = molecular target: T3, AP (alkaline phosphatase alone) (UniProt P05187 23-511); test: AP binding to COS-7 cells transfected with the mouse NgR clone
T3 construct: Control without Nogo residues; also called AP alone
Description: This assay was utilized for expression cloning of a NgR. Pools of a mouse adult brain cDNA expression library representing 250,000 independent clones were transfected into non-neuronal COS-7 cells. […] Single cDNA clones encoding a Nogo biding site were isolated by sib-selection from each of the two positive pools. The two independently isolated clones are identical to one another except for a 100 bp extension of the 5′ untranslated region in one clone. […] Furthermore, GST-Nogo displaces AP-Nogo from these sites.

[8] = molecular target: B4; test: AP-Nogo binding to COS-7 cells transfected with the mouse NgR clone
Description: A Nogo binding assay was developed which utilizes a method widely used in examining semaphorin and ephrin axonal guidance function (Flanagan & Vanderhaeghen, (1998) Annu. Rev. Neurosci. 21, 309-345; Takahashi et al., (1999) Cell 99, 59-69). It involves fusing a secreted placental alkaline phosphatase (AP) moiety to the ligand in question to provide a biologically active receptor binding agent which can be detected with an extremely sensitive colorimetric assay. For Nogo, an expression vector was created encoding a signal peptide, a His6 tag for purification, AP and the 66 amino acid active domain of Nogo. The fusion protein can be purified from the conditioned medium of transfected cells in milligram amounts (FIG. 5). This protein is biologically active as a growth cone collapsing agent, with an EC₅₀ of 1 nM. […] Binding is blocked by GST-Nogo and by the antagonistic 25 amino acid peptides, consistent with competitive binding to a neuronal receptor site.
This assay was utilized for expression cloning of a NgR. Pools of a mouse adult brain cDNA expression library representing 250,000 independent clones were transfected into non-neuronal COS-7 cells. […] Single cDNA clones encoding a Nogo biding site were isolated by sib-selection from each of the two positive pools. […]

[9] = molecular target: B4; test: AP-fusion binding to COS-7 cells expressing mouse NgR

B1: NgRΔNT (residues 58 to 473 of mNgR) (receptor, not shown: small tags and cut ends)
chain: SSQRIFLHGNRISHVPAASFQSCRNLTILWLHSNALARIDAAAFTGLTLLEQLDLSDNAQLHVVDPTTFHGLGHLHTLHLDRCGLRELGPGLFRGLAALQYLYLQDNNLQALPDNTFRDLGNLTHLFLHGNRIPSVPEHAFRGLHSLDRLLLHQNHVARVHPHAFRDLGRLMTLYLFANNLSMLPAEVLMPLRSLQYLRLNDNPWVCDCRARPLWAWLQKFRGSSSEVPCNLPQRLADRDLKRLAASDLEGCAVASGPFRPIQTSQLTDEELLSLPKCCQPDAADKASVLEPGRPASAGNALKGRVPPGDTPPGNGSGPRHINDSPFGTLPSSAEPPLTALRPGGSEPPGLPTTGPRRRPGCSRKNRTRSHCRLGQAGSGASGTGDAEGS
notes: In pSecTag2, on COS-7 cells; vector tags as for wtNgR; also called amino terminus deletion
binding result [1]: no binding | binding result [2]: no binding

B3: 140-AP (fusion protein containing AP and the 1-40 peptide, residues #1055-1094 of hNogoA) (ligand)
chain: RIYKGVIQAIQKSDEGHPFRAYLESEVAISEELVQKYSNS
modifications: also: fused to alkaline phosphatase (AP), order not given here
notes: not shown: alkaline phosphatase of vector pcAP-6
Kd [4]: 8 nM

Binder: B4
growth cone collapse, chick E12 dorsal root ganglion (EC50) [5]: 1 nM | Kd [6]: 3 nM

Binder: B5
binding result [7]: no binding | Kd [8]: ~3 nM | Kd [9]: ~7 nM

Now from value to binder:

binding result [1]: no binding | binding result [2]: no binding
B2: NgLRR- (residues 306 to 473 of mNgR) (receptor, not shown: small tags and cut ends)
chain: LEGCAVASGPFRPIQTSQLTDEELLSLPKCCQPDAADKASVLEPGRPASAGNALKGRVPPGDTPPGNGSGPRHINDSPFGTLPSSAEPPLTALRPGGSEPPGLPTTGPRRRPGCSRKNRTRSHCRLGQAGSGASGTGDAEGS
notes: In pSecTag2, on COS-7 cells; also called complete LRR domain deleted

binding result [3]: no binding
Binder: IQKSDEGHPFRAYLESEVAISEELVQKYSNS [peptide having residues 10-40 of hNogoA(#1055-1120)]
